Reference: US20100004429A1 (Kyowa Kirin, published 2010)

T1: human thrombopoietin receptor (human c-Mpl) (human, UniProt P40238 26-635)
T1 sequence (looked up): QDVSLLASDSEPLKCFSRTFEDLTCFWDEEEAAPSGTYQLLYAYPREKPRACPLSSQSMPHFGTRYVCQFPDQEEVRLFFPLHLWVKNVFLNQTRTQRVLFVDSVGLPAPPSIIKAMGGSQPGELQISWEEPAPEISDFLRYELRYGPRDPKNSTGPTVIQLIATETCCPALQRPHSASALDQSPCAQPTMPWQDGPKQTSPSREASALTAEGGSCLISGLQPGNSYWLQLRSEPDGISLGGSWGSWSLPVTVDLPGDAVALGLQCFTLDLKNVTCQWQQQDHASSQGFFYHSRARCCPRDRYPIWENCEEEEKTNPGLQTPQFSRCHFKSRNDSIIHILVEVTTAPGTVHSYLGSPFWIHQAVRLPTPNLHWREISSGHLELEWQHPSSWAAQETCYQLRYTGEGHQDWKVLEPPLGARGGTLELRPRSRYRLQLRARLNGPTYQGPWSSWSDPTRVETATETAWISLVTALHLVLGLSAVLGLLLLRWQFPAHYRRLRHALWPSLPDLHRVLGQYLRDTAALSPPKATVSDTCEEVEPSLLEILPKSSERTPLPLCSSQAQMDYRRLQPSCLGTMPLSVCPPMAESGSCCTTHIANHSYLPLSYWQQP


Experiments:
[1] = target: T1, human thrombopoietin receptor (human …); assay: cell-based or functional assay
[2] = target: T1, human thrombopoietin receptor (human …); assay: flow cytometry on FM3A-hMpl cells
Experimental: The binding activity of the anti-human c-Mpl antibodies was assayed by flow cytometry using the hybridoma culture supernatants or purified antibodies in the following manner. The FM3A-hMpl cells or human Mpl expressing FDCP2 cells (FDCP-hMpl) (FEBS, Lett., Oct. 21, 1996, 395 (2-3): 228-34) were used.
Cells (4×10⁵ cells) were suspended in 50 μl of FACS staining medium (2% FBS, 0.1% NaN₃, 1 mM EDTA in PBS) per reaction, 50 μl of the hybridoma culture supernatant or purified human antibody solution (final concentration: 0.1-1 μg/ml) was added, and the reaction was carried out on ice for 30 minutes. After the washing with FACS staining medium, a secondary antibody, the R-phycoerythrin (RPE) labeled goat anti-human Igγ F(ab′) antibody (Cat#2043-09, Southern Biotechnology), was added, and the reaction was carried out again on ice under the light-shielded conditions for 30 minutes, followed by washing again. The cells were suspended in a propidium iodide (PI)-containing FACS staining medium in order to analying binding activities of the antibodies. The analysis was made using the FACS Calibur (Becton Dickinson).
The concentrations of antibodies were prepared at 1, 0.1, and 0.01 μg/ml, and flow cytometry was carried out using FM3A-hMpl cells. The experiment was carried out in accordance with the method described in Example 4. […]

[3] = target: T1, human thrombopoietin receptor (human …); assay: cell-based or functional assay; remark: listed apart in the source

UT7/TPO (Max) [1] [%] | Binder | other results
> 90 | anti-human c-Mpl agonist antibody 7-10 (IgG1) (antibody, V domains shown) VH: EVQLVESGGGLVQPGRSLRLSCAASGFTFDDYAMHWVRQAPGKGLEWVSGISWNSGSIGYADSVKGRFTISRDNAKNSLYLQMNSLRAEDTALYYCAKNLWFGEFRYWYFDLWGRGTLVTVSS VL: AIQLTQSPSSLSASVGDRVTITCRASQGISSALAWYQQKPGKAPKLLIYDASSLESGVPSRFSGSGSGTDFTLTISSLQPEDFATYYCQQFNSYPLTFGGGTKVEIK | 
 | 7-10G4344uhm light chain mutant 7-10VL_A43V (antibody, V domains shown, Mutant light chain combined with the heavy chain of 7-10G4344uhm; human kappa constant region; also called 6-4-50VL substitution product 2) VH: EVQLVESGGGLVQPGRSLRLSCAASGFTFDDYAMHWVRQAPGKGLEWVSGISWNSGSIGYADSVKGRFTISRDNAKNSLYLQMNSLRAEDTALYYCAKNLWFGEFRYWYFDLWGRGTLVTVSS VL: AIQLTQSPSSLSASVGDRVTITCRASQGISSALAWYQQKPGKVPKLLIYDASSLESGVPSRFSGSGSGTDFTLTISSLQPEDFATYYCQQFNSYPLTFGGGTKVEIK | binding result [2]: binds
 | 7-10G4344uhm light chain mutant 7-10VL_Y94F (antibody, V domains shown, Human kappa constant region; also called CDR substitution product) VH: EVQLVESGGGLVQPGRSLRLSCAASGFTFDDYAMHWVRQAPGKGLEWVSGISWNSGSIGYADSVKGRFTISRDNAKNSLYLQMNSLRAEDTALYYCAKNLWFGEFRYWYFDLWGRGTLVTVSS VL: AIQLTQSPSSLSASVGDRVTITCRASQGISSALAWYQQKPGKAPKLLIYDASSLESGVPSRFSGSGSGTDFTLTISSLQPEDFATYYCQQFNSFPLTFGGGTKVEIK | agonistic activity relative to the original 7-10G4344uhm [3]: ~0.1 fold of the original level; binding activity relative to the original 7-10G4344uhm [2]: ~0.1 fold of the original level
> 50 | anti-human c-Mpl agonist antibody 6-5-2 (IgG1) (antibody, V domains shown) VH: EVQLVECGGGLVQPGRSLRLSCAASGFTFDDYAMHWVRQAPGKGLEWVSGISWNSGSIGYADSVKGRFTISRDNAKNSLYLQMNSLRAEDTALYYCAKPIWFGEWGNYYGMDVWGQGTTVTVSS VL: not shown | 
> 80 | anti-human c-Mpl agonist antibody 4-49 (IgG1) (antibody, V domains shown) VH: EEQLVESGGGLVQPGRSLRLSCTASGFTFDDYAMYWVRQVPGKGLEWVSGISWNSGSIGYADSVKGRFTVSRDNAKNSLYLQMNSLRAEDTALYYCAKALWFGEFPHYYGMDVWGQGTTVTVSS VL: AIQLTQSPSSLSASVGDRVTITCRASQGISSTLAWYQQKPGKAPKLLIYDASSLESGVPSRFSGSGSGTDFTLTISSLQPEDFATYYCQQFNSYPYTFGQGTKLEIKR | 
> 80 | anti-human c-Mpl agonist antibody 6-4-50 (IgG1) (antibody, V domains shown) VH: EVQLVESGGGLVQPGRSLRLSCATSGFTFDNYAMYWVRQAPGKGLEWVSGISWNSGDIGYADSVKGRFTISRDNAKNSLYLQMNSLRAEDTALYYCARDAGFGEFHYGLDVWGQGTTVTVSS VL: AIQLTQSPSSLSASVGDRVTITCRASQGISSALAWYQQKPGKVPKLLIYDASSLESGVPSRFSGSGSGTDFTLTISSLQPEDFATYYCQQFNSYPWTFGQGTKVEIKR | 
